The text below walks through data of patent publication US20260098089A1.

Where only a bound is given, the exact number is not on record here.

Test [1] addresses Cynomolgus monkey (Macaca fascicularis) CD7 protein (soluble) (cynomolgus monkey (Macaca fascicularis)). Description: SPR, captured mAb, global fit 1:1 model. For orientation: In SPR one partner is held on a chip, and binding of the other changes the refractive index at the surface.
The target in test [2] is Human CD7 protein (soluble) (human) (UniProt P09564). Description: SPR, captured mAb, global fit 1:1 model.
In test [3] the target is Human CD7 on cells (CEM and other T-ALL cells, peripheral NK and T cells) (human) (UniProt P09564). Description: cell-based or functional assay.

The Kd is the concentration at which binding is half-saturated. For orientation: koff means the first-order rate constant of dissociation. The term kon denotes the rate constant with which the complex forms.

Sequence of Cynomolgus monkey (Macaca fascicularis) CD7 protein (soluble) (cynomolgus monkey (Macaca fascicularis)) (chain, as listed by the source limits assumed): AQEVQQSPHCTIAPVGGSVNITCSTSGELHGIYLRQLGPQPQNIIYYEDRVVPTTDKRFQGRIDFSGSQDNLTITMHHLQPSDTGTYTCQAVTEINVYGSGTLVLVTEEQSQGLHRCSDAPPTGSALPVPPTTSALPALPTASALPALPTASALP
Sequence of Human CD7 on cells (CEM and other T-ALL cells, peripheral NK and T cells) (human) (P09564 26-238 limits assumed): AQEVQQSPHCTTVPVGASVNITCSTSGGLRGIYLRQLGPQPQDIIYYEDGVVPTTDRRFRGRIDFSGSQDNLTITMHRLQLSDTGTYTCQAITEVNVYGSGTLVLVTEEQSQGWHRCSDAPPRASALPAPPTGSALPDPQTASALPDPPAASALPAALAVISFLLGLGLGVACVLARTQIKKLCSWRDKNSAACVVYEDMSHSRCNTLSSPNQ
Sequence of Human CD7 protein (soluble) (human) (P09564 26-180 limits assumed): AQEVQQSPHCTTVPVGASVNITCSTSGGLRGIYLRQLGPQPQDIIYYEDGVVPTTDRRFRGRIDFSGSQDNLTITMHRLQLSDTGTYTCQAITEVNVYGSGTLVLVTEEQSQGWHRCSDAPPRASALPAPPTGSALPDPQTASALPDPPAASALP

In test [1], RFT2 IgG1 (antibody) returned a Kd of 50.8 nM, a koff of 0.0254 s⁻¹ and a kon of 529000 M⁻¹ s⁻¹. In test [2], this substance returned a dissociation constant Kd of 6.22 nM, a koff of 0.0037 s⁻¹ and a kon of 611000 M⁻¹ s⁻¹.

In test [3], RFT2 IgG1 E345R (antibody) gave a CDC assay on CEM cells, EC50 (FIG. 1) of less than 1 nM; a CDC assay on CEM cells, maximum killing (FIG. 1) of 100%; an EC50, CDC assay on CEM cells of 0.22 nM; a Maximum killing, CDC assay on CEM cells of 98.5%.

Take TH69 (antibody): in test [2], the equilibrium dissociation constant (Kd) came out at 0.279 nM, the koff is 0.000125 s⁻¹ and the on-rate (kon) was found to be 451000 M⁻¹ s⁻¹.

With TH69 E345R (antibody), in test [3], the EC50, CDC assay on CEM cells worked out at 0.21 nM and the Maximum killing, CDC assay on CEM cells was 87.1%.
